The chains are these.
B1: Twister Ribozyme (parent)
chain: AACACUGCCAAUGCCGGUCCCAAGCCCGGAUAAAAGUGGAGGGGGCGG

In this data set the parent is B1. Kind of data set: self-cleavage, relative activity (ratio to wild type); higher = more cleavage; co-transcriptional.
As for AACACUGCAAAUGCCGGUCCCAAGCCCGGAUAAAAGUGGAUGGGGCGG [C9A G41U], the self-cleavage amounted to 0.179.

Take AACACUGCCAAUGCCGGUCCCAAGCCCGGAUAAAAUUGGUGGGGGCGG [G36U A40U]: the self-cleavage turned out to be 0.141.

On to AACACGGCCAAUGCCGGUCCCAAGCCCGGAUAAAAGUGGAGGGGGUGG [U6G C46U], for which the self-cleavage came to 0.632.

In the case of AACACUGCCAAUGCCGGUCCCAAGGCCCGAUAAAAGUGGAGGGGGCGG [C25G G28C], the self-cleavage is 0.0925. On to AACUCUGCCAAUGCCGGUCCCAAGCCCGGAUCAAAGUGGAGGGGGCGG [A4U A32C], for which the self-cleavage is 0.1.

As to AACACUGCAAAUGCCGGUCCCAAGCCCGUAUAAAAGUGGAGGGGGCGG [C9A G29U], the self-cleavage amounted to 0.686. As for AACACUGCCAAUGCCGGUCCCAAGUCCGGAUAAAAGUGGAGGGGCCGG [C25U G45C], the self-cleavage stood at 0.247. Consider AACACUGCCAAUGCCGGCCCCAACCCCGGAUAAAAGUGGAGGGGGCGG [U18C G24C], for which the self-cleavage came out at 0.0613. Regarding AACACUGCCAAUACCGGUCCCAAGCCCGGAUAAAAGUGGAGGAGGCGG [G13A G43A], the self-cleavage was found to be 0.14. AACACUGCCAAUGCCGGUCCCACGCCCGGAUAAAAGUGGAGGGGGCGA [A23C G48A]: the self-cleavage turned out to be 0.14. In the case of AACACUGCCAAUGCCGGUCCCAAGCCCGAAUAAAAGUUGAGGGGGCGG [G29A G38U] it was 0.634. As for AACACUGCCAAUGCCGGUCCCAAGCCCGGUUAAAAGUGGACGGGGCGG [A30U G41C], the figure is 0.286; as for AAUACUGCCAAUGCCGGUCCCAAUCCCGGAUAAAAGUGGAGGGGGCGG [C3U G24U], 0.0933.

On to AACAAUGCCAAUGCCGGUCCCAAGCCCGGAUAAAAGUAGAGGGGGCGG [C5A G38A], for which the self-cleavage came to 0.206. Consider AACACUGCCAAUGCCGGACCCAAGCCCGGAUUAAAGUGGAGGGGGCGG [U18A A32U], for which the self-cleavage was 0.632. As for AACACUGCCAAUGCCGUUCCCAAGCCCGGAUCAAAGUGGAGGGGGCGG [G17U A32C], the figure is 0.263; as for AACACUGCCAAUGCCGGUCCAAAGCCCGGAUAAAAGUGGUGGGGGCGG [C21A A40U], 0.0782. As for AACACUGCCAAUGCCGGUCCUAAGCCCGAAUAAAAGUGGAGGGGGCGG [C21U G29A], the self-cleavage was 0.096. For AACACUGCCAAUGCCGGUCCCAAGCCCGGAUAAAAGUGGAGGGGGAGC [C46A G48C], the self-cleavage is 0.995. As for AACACUGCCAAUGCCGGUCGAAAGCCCGGAUAAAAGUGGAGGGGGCGG [C20G C21A], the figure is 0.0754. Regarding AACACUGCCAAUGCCGGUCCCAAGCCCGGAUAAAAGGGGAGGGUGCGG [U37G G44U], the self-cleavage was 0.805.

Turning to AACACUGCCAAUGCCGGUCCCAAGCCCGGAUAAAACUGGUGGGGGCGG [G36C A40U], the self-cleavage is 0.149. Take AUCACUGCCAAUGCCAGUCCCAAGCCCGGAUAAAAGUGGAGGGGGCGG [A2U G16A]: the self-cleavage is 0.256.

With AACACUGCCAAUGCCGGUCCCAAGCCCUGAUAAAAGGGGAGGGGGCGG [G28U U37G], the self-cleavage is 0.168. As for AACAGUGCCAAUGCCGGUCCCAAGCCCGGAUAAAAGUGGAGAGGGCGG [C5G G42A], the self-cleavage was 0.108. In the case of AAAACCGCCAAUGCCGGUCCCAAGCCCGGAUAAAAGUGGAGGGGGCGG [C3A U6C], the self-cleavage was 0.0414. In the case of AACACUGCCAAUGCCGGUCCCAAGCCCGGAUAAAAGUGGAGGGUCCGG [G44U G45C], the self-cleavage stood at 0.609. For the variant CACACUGCCAAUGCCGGUCCCAAUCCCGGAUAAAAGUGGAGGGGGCGG [A1C G24U], the self-cleavage is 0.111.

As to AACACUGCCAGUGCCGGUCCCAAGCCCGGAUAAAAGUAGAGGGGGCGG [A11G G38A], the self-cleavage came to 0.824. AACACUGCCAAUGCCGGUCCCAAGCCCGGACAAAACUGGAGGGGGCGG [U31C G36C]: the self-cleavage turned out to be 0.635.

On to AACACUACCAAUGCCGGCCCCAAGCCCGGAUAAAAGUGGAGGGGGCGG [G7A U18C], for which the self-cleavage turned out to be 0.0816. Regarding AACACUGCAAAUGCCGGUCCCAAGCCCGGAUAAAAGUGGUGGGGGCGG [C9A A40U], the self-cleavage stood at 0.119. Regarding AACACUGCCAAUGCCGGUCUCAAGCCCGGAUAAAAGUGGAGGUGGCGG [C20U G43U], the self-cleavage amounted to 0.146. As for AACACAGCCAAUGCCGGUCCCAAGCCCGGAUAAAAGUGGAGGGGGCUG [U6A G47U], the figure is 0.441; as for AACACUGCAAAUGCCGGUCCCAAGCCCGGAUAAAAUUGGAGGGGGCGG [C9A G36U], 0.0953; as for AACACUGCCAAUGCGGGUCCCAAGCCCAGAUAAAAGUGGAGGGGGCGG [C15G G28A], 0.624. For AACACUGCCAAUGCCGGUCCCAAGCCCGGAUAAAAGUAGAGGGGGAGG [G38A C46A], the self-cleavage worked out at 0.875.

Consider AACCCUGCCAAUGCCGGUCCCAAGCCCGGAUAAAAGGGGAGGGGGCGG [A4C U37G], for which the self-cleavage turned out to be 0.623. As to CACUCUGCCAAUGCCGGUCCCAAGCCCGGAUAAAAGUGGAGGGGGCGG [A1C A4U], the self-cleavage amounted to 0.116.

With AACACUGCCAAGGCCGGUCCCAAGCCCGGAUGAAAGUGGAGGGGGCGG [U12G A32G], the self-cleavage worked out at 0.914. Take AGCACUGCCAAUGCCGGGCCCAAGCCCGGAUAAAAGUGGAGGGGGCGG [A2G U18G]: the self-cleavage came out at 0.0967. For AACACUGCCAAUGCAGGUCCCAAGCCCGCAUAAAAGUGGAGGGGGCGG [C15A G29C], the self-cleavage is 0.156.

As for AACACUGCCAAUGCCGGUCCCAAGCCCGAAUAAAAGUGGGGGGGGCGG [G29A A40G], the self-cleavage turned out to be 0.146.

Take AACACUGCCAAUGCCGGUCUCAAGCCCGGAUAGAAGUGGAGGGGGCGG [C20U A33G]: the self-cleavage is 0.988. Regarding AACACUGCCAAUCCCGGUCCCAAGCCCGGAUAAAAGUGGUGGGGGCGG [G13C A40U], the self-cleavage was found to be 0.109.

Take AACACCGCCAAUGCCGGUCCCAAGCCCCGAUAAAAGUGGAGGGGGCGG [U6C G28C]: the self-cleavage worked out at 0.215. In the case of AACACUGCCAAUGCCGGUCCUAAGCCCGGAUAAAAGUGGAGAGGGCGG [C21U G42A], the self-cleavage stood at 0.0823. In the case of AACACUGCCAAUGCCGGUCCCAGGCCCAGAUAAAAGUGGAGGGGGCGG [A23G G28A], the self-cleavage worked out at 0.284. As to AAUACUGCCAAUGCCGGUCCCAAGCCCGGAUAAAAUUGGAGGGGGCGG [C3U G36U], the self-cleavage was 0.064. On to AAGACUGCCAAUGCCGGUCCCAAGCCCGGAUAAAAGUGGAGGGGGGGG [C3G C46G], for which the self-cleavage was 0.568. With AACACUGCCAAUGCCGGUCCCAAGCCCGGAUGAAAGUGGAGGGCGCGG [A32G G44C], the self-cleavage came to 0.907. For AACACUGCCAAUGCCGGUCCCAAGCCAGGAUAAAAGUGAAGGGGGCGG [C27A G39A], the self-cleavage was determined as 0.128.

As for AACACUGCCAAUGCCAGACCCAAGCCCGGAUAAAAGUGGAGGGGGCGG [G16A U18A], the self-cleavage came out at 0.482. As for AAAACUGCCAAUGCCGGUCCCAAGCCCGGAUAAAAGUGGAGGGUGCGG [C3A G44U], the figure is 0.253.

The record behind these values is the RNAGym collection of RNA variant scans (doi:10.7554/elife.80360).
